Test results published in the supplement of paper PMC9170038.

Experiments:
[1] = system: MS2 coat protein; assay: apparent KD of MS2 coat protein, switch OFF state (with FMN for OFF switches, without FMN for ON switches); designed switch direction (-1 OFF switch, 1 ON switch): 1; higher = weaker reporter binding; conditions: FMN input: 0 or 200 uM; Eterna round: R93 (includes R88 designs)
Method in brief: (§1)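 Titration buffer: 100 mM Tris-HCl pH 7.5, 80 mM KCl, 4 mM MgCl2, without or with constant ligand. Designed RNA switches transcribed on-chip from Illumina sequencing clusters received SNAP-549-labelled MS2 coat protein in twofold steps from 0.7 or 1.5 nM to 3 µM. Apparent KD is the median per design of fits to normalised cluster binding curves.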

[2] = system: MS2 coat protein; assay: apparent KD of MS2 coat protein, switch ON state; designed switch direction (-1 OFF switch, 1 ON switch): 1; higher = weaker reporter binding; conditions: FMN input: 0 or 200 uM; Eterna round: R93 (includes R88 designs)
Method in brief: as §1

Row | Sequence | apparent KD of MS2 coat protein [1] [µM] | apparent KD of MS2 coat protein [2] [µM]
1 | AAUAUAUUAAGUGAGGAUAUCAAGAAAAAAACAUGAGGAUCACCCAUGUGGGAAACAUGGUAGGGUGAGAAGGUACUUAAUAUAU [Samwise Clockwise 21 - Jieux - Same State 2] | 0.691 | 0.228
2 | AAUAUAUUAAGUGAGGAUAUCAUAGGAAAAACAUGAGGAUCACCCAUGUGGGAAACCUGGUCGGGUGAGAAGGUGCUUAAUAUAU [Samwise Clockwise 32 - Jieux - Same State 2] | 0.235 | 0.0506
3 | AAUCCAAAUAGUUAGGAUAUGGGAAUUAAGACAUGAGGAUCACCCAUGUAAUUAAAACAAGUUAACCAGAAGGGACAGGGUGAAA [JR_SS002_Sub207] | 0.112 | 0.16
4 | ACCCGCAGCCGUCAGGAUAUGUUCGCGUCAACAUGAGGAUCACCCAUGUGUGACAAGAAGUACACGCAGAAGGGAUCAAUGCGGG [Bienri] | 0.0164 | 0.0137
5 | AGAAAACAUGAGGAUCACCCAUGUAGAAAUAUGGGAGGAUAUACAAAGACGAAAGUCAAAGUAGAAGGCCUAAAGA [Mat - Same State 1 - Eli mod - 33] | 0.0719 | 0.019
6 | AGAAAACAUGAGGAUCACCCAUGUAGAAAUAUGGGAGGAUAUACAAAGACGAAAGUCGAGGUAGAAGGCCUAAAGA [Mat - Same State 1 - Meechl mod - D122] | 0.103 | 0.0217
7 | AGAAAACAUGAGGAUCACCCAUGUAGAAAUAUGGGAGGAUAUACAAGGACGAAAGUCAAGGUAGAAGGCCUAAAGA [Mat - Same State 1 - Meechl mod - D127] | 0.0884 | 0.0228
8 | AGAAAACAUGAGGAUCACCCAUGUAGAAAUAUGGGAGGAUAUACGAGGACGAAAGUCAAAGUAGAAGGCCUAAAGA [Mat - Same State 1 - Meechl mod - D125] | 0.0712 | 0.021
9 | AGAAAACAUGAGGAUCACCCAUGUGACAAUAUGGGAGGAUAUACGAACACGAAAGUCGAAGUAGAAGGCCUAAAGA [Garnet 53] | 0.0757 | 0.0263
10 | AGAAAUAAAACACAGGAUAUGAAAAAGAAAACAUGAGGAUCACCCAUGUAAAAGAAAAAUAAAAAUCAGAAGGGUGAAAAUAAAG [Put G segment last in JL design (80%)] | 0.205 | 0.059
11 | AGAAAUAAAAGAGAGGAUAUCCAAAAGAAAACAUGAGGAUCACCCAUGUGAAAGAAAAGAAAAUGGGAGAAGGCUCAAAAUAAGA [Topaz 18] | 0.0554 | 0.0225
12 | AGAAAUAAAGCUGAGGAUAUGGGAAAAUUCACAUGAGGAUCACCCAUGUAAAAGAAAAUAAAAAACCAGAAGGCAGCAAAUAAGA [Designing denovo 6] | 0.0498 | 0.0276
13 | AGACAUAAAAGAGAGGAUAUCCAAAAGAAAACAUGAGGAUCACCCAUGUAAAAGAAAAUAAAAUGGGAGAAGGCUCACAUACAGA [Topaz 35] | 0.0504 | 0.019
14 | AGACAUAACAGAGAGGAUAUCCAAUAGAAAACAUGAGGAUCACCCAUGUGAAAGAAAAUAAAAUGGGAGAAGGCUCACAUACAGA [Topaz 39] | 0.023 | 0.00557
15 | AGCACGUGAUUGGAGGAUAUGUAGUAAGCAACAUGAGGAUCACCCAUGUCUGAGGCUGAAAACCAGCAGAAGGCCGAUACAACCA [SS2-1.6] | 0.0227 | 0.0153
16 | AGGAAACAUGAGGAUCACCCAUGUAAAAAUAACACAGGAUAUGGAAACACGAAAGUGAAACCAGAAGGGUGAAAAG [77%, Mat - Mod of Eli, 16] | 0.0261 | 0.0178
17 | AGGAAACAUGAGGAUCACCCAUGUGUAAAAAAUACAGGAUAUGGAAACACGAAAGUGAAACCAGAAGGGUAAAAAA [77%, Mat - Mod of Eli, 31] | 0.019 | 0.0134
18 | AGGAGACAUGAGGAUCACCCAUGUGAGAAGAGGCGAGGAUAUCGAAAGAAAGAAGAGAAACGAGAAGGCGCGAGAU [salish99-SS1-021] | 0.0387 | 0.0251
19 | AUAAAACAUGAGGAUCACCCAUGUAAUAAGAACCGAGGAUAUGGAAAUAAUAAUAAUAAACCAGAAGGUGGUGAUC [Meechl MS2 SS1] | 0.105 | 0.11
20 | AUAAAAUAAAGUCAGGAUAUCCAUAAUAAAACAUGAGGAUCACCCAUGUUAAAAAAAAGAUCAUGGGAGAAGGGACAAAAUAAAU [SS2 M 33] | 0.0576 | 0.0286
21 | AUAACACAUGAGGAUCACCCAUGUAGAAACAAGUCAGGAUAUGCAACCUCAUGAAAUAAAGCAGAAGGGACAAUAA [SS 1 Tesla 4] | 0.088 | 0.0264

Row | Sequence | apparent KD of MS2 coat protein [1] [µM] | apparent KD of MS2 coat protein [2] [µM]
22 | AUAAUAUUAAGCUAGGAUAUACUAAAGUAAACAUGAGGAUCACCCAUGUAAAAAAAAAAACUCAUGUAGAAGGAGCAUAAAUAAA [moonwalk 9] | 0.015 | 0.0122
23 | AUAUGAGCUAUGGAGGAUAUCCACAAUAAAACAUGAGGAUCACCCAUGUAAGAAAGAAAAGAAUGGGAGAAGGCCAUAGCUCAAU [SS 2 M45] | 0.0175 | 0.00754
24 | AUAUGAUCAUGUGAGGAUAUCCAUAAUAAAACAUGAGGAUCACCCAUGUAUAGAUAAUAAUAAUGGGAGAAGGCACAUGAUCAAU [SS 2 M41] | 0.0179 | 0.0216
25 | AUCAGGAAGAGAGAGGAUAUCCAAAGGAAAACAUGAGGAUCACCCAUGUAAAAGGUAGGAAAUUGGGAGAAGGCUCAAGAGAGAG [salish99-ss2-093] | 0.0293 | 0.0264
26 | AUGAAUAGCAUCGAGGAUAUCCAGUCAUGCACAUGAGGAUCACCCAUGUAAGAGAGAGUAUAAUGGGAGAAGGCGAGUACUCGAU [JR_SS002_Sub1704] | 0.0694 | 0.082
27 | AUGGUCAAGUGUGAGGAUAUCCAGGCUCCCACAUGAGGAUCACCCAUGUUUAUUAGAGCGUAAAGGGAGAAGGUACGAACGCCAU [Esbibiti] | 0.0269 | 0.0156
28 | AUGGUGCAGGUACAGGAUAUGUUGCUCGUAACAUGAGGAUCACCCAUGUACCUAUGAGAUUAAAUGCAGAAGGGUGCACACCACG [Quorra] | 1.48 | 0.0435
29 | AUUCCAAAUAGUCAGGAUAUCAAAAAUAAGACAUGAGGAUCACCCAUGUACUUAGUAAAAGUAAAUGAGAAGGGACAGGGUGUAA [JR_SS002_Sub404] | 0.0194 | 0.0129
30 | CAAACAACAGCACAGGAUAUCCAUAUAAUAACAUGAGGAUCACCCAUGUAAGCGGAAAAUAACGCGGAGAAGGGUGAACACACAA [Default title] | 0.0351 | 0.13
31 | CAUCAACAUGAGGAUCACCCAUGUCAGUGAUGUCAAGGAUAUGGGAGACAUAAAAUUCUUCUAGAAGGUGAAAGAU [Orlaanar] | 0.125 | 0.209
32 | CCGAUGGUAUACUAGGAUAUGGGCGCCCUUACAUGAGGAUCACCCAUGUUUACACAAAUCCGCGGCCAGAAGGAGUUCAUGGGAG [Orgere] | 0.163 | 0.0903
33 | CGAAAGGAGAGAGAGGAUAUCCAAAGGAAAACAUGAGGAUCACCCAUGUAGAAGGUAGGAGAUUGGGAGAAGGCUCAAGCUAAAC [salish99-ss2-158] | 0.0373 | 0.0402
34 | CGAGUACAUGAGGAUCACCCAUGUUAUGAAUUGUCAGGAUAUGGAUAAAGGUGACAUGCGCCAGAAGGGACGUAUG [JR_SS001_Sub1006] | 0.0437 | 0.0369
35 | CGGAGACAUGAGGAUCACCCAUGUGAGAAGAGGCGAGGAUAUCGAAAAAAAAAAAAAAAACGAGAAGGCGCGAGAC [salish99-SS1-011] | 0.0514 | 0.0285
36 | CGGAGACAUGAGGAUCACCCAUGUGAGAAGAGGCGAGGAUAUCGAAAGAAAGAAGAGAAACGAGAAGGCGCGAGGA [salish99-SS1-067] | 0.0388 | 0.0227
37 | CGUGAACAUGAGGAUCACCCAUGUGAAAAACAUAGAGGAUAUGUCACGUGAGUGUAAAAGACAGAAGGCUAUCGUG [Mod 3 of Round 1 starryjess' Mod pf Nando] | 0.0741 | 0.0365
38 | CUGGACAUAGUAUAGGAUAUAUGAAUAGUUACAUGAGGAUCACCCAUGUGCAUUUAUAUGCGAACAUAGAAGGGUGGUAGUUAAG [Mat - Same state - Malcolm Mod - D141] | 0.0484 | 0.0884
39 | GAAAAACAUGAGGAUCACCCAUGUAAUACAACGUCAGGAUAUUGAUUUUAUUAUGUAUUGCAAGAAGGGACAAAAG [Mat - Same State 1 - Hyphema mod - D99] | 0.0494 | 0.0952
40 | GAAAAACAUGAGGAUCACCCAUGUAGAAACUAGGGAGGAUAUACUAAGACGAAAGUCGAAGUAGAAGGCCUUUAAA [Same State 1.4m (Mat - Mod of Eli - )] | 0.0147 | 0.0142
41 | GAAAAACAUGAGGAUCACCCAUGUAGAAAUAUGGGAGGAUAUACAAACUCGAAAGACAAAGUAGAAGGCCUAAAAG [Garnet 24] | 0.133 | 0.0382
42 | GAAAAACAUGAGGAUCACCCAUGUAGAAAUAUGGGAGGAUAUACAAACUCGAAAGUCAAAGUAGAAGGCCUAAAAG [Garnet 29] | 0.224 | 0.107
